{"source": "patent US20250304662A1", "about": "(published 2025)", "binders": {"B1": {"name": "Kp 1A09 (antibody, V domains shown)", "VH": "EVQLQQPGAELVKPGASVKLSCKASGYTFTSYWMHWVKQRPGQGLEWIGLIHPNSGSTYYNEKFKNKATLTVDKSSSTAYMQLSSLTSEDSAVYYCARWDDSYWYFKVWGTGTTVTVSS", "VL": "QIVLTQSPAILSASPGEKVTMTCRASSSVSYMHWYQQKPGSSPKPWIYATSNLASGVPARFSGSGSGTSYSLTISRVEAEDAATYYCQQWSSNPYTFGGGTKLEIKR"}, "B2": {"name": "Kp 1E07 (antibody, V domains shown)", "VH": "B1 VH", "VL": "B1 VL"}, "B3": {"name": "Kp1 2E02 (antibody, V domains shown)", "VH": "EVQLQQSGPVLVKPGPSVKISCKASGFTFTDYYIHWVKRSHGKSLEWIGLVSPYNGGTFYNQKFKGKATLTVDTSSNTAYMELTSLTSEDSAVYYCARLGVNWYFDVWGTGTTVTVSS", "VL": "QIVLTQSPALMAASPGEKVTLTCSVSSSISSSTLHWYQQKSETSPKPWIYGTSNLASGVPVRFSGSGSGTSYSLTISSMEAEDAATYYCQQWSTYPYTFGGGTKLEIKR"}, "B4": {"name": "Kp 2H07 (antibody, V domains shown)", "VH": "EVQLQQSGPVLVKPGPSVNISCKASGFTFTDYYIHWVKQSHGKSLEWIGLVYPYSGGTYYNQKFKGKATLTVDASSSTAYMELGSLTSEDSAVYYCARLGDNFYYFDYWGQGTTLTVSS", "VL": "B3 VL with A9T, L21I, T33N, S93R, T94S"}, "B5": {"name": "Ec1 F7 (Fab, V domains shown)", "VH": "EVQLQQPGPVLVKPGPSVKISCKASGFTFTDYFIHWVKQSHGKSLEWIGLVSPYNGGTYYNQQFKGKATLTVDTSSSTAYMDLNSLTSEDSAVYYCTRLLRGYWYFDVWGTGTTVTVSS", "VL": "B3 VL with L21I, S30G, T33N"}, "B6": {"name": "Kp1 1B03 (antibody, V domains shown)", "VH": "EVQLQQSGAELVKPGASVKLSCKASGYTFTSYWMHWVQQRPGQGLEWIGLIHPIGGGTHYNEKFKNKATLTVDKSSSTAYMQLSSLTSEDSAVYYCARLGTGPYYFDYWGQGTTLTVSS", "VL": "B3 VL with L21I, H35D, I49V, T94S, Y97W"}, "B7": {"name": "Ec1 F7 Fab (Fab, V domains shown)", "VH": "B5 VH", "VL": "B3 VL with L21I, S30G, T33N"}, "B8": {"name": "Kp1 1A02 (antibody, V domains shown)", "VH": "EVQLQQSGPVLVKPGPSMKISCKASGFTFTDYYIHWVRQSHGKSLEWIGLVSPYNGGTYYNQKFKGKATLTVDSSSSTAYMELSSLTSEDSAVYYCARLGYYGDWYYFDYWGQGTPLTVSS", "VL": "B3 VL with A13T, L21I, T33N, H35N, T94S"}, "B9": {"name": "Kp 2D10 (antibody, V domains shown)", "VH": "EVQLQQSGAELVKPGASVKLSCKASGYTFTTYWMHWMKQWPGQGLEWIGLIHPNSGSTYYNEKFKSKATLTVDKSSSTAYMQLSSLTSEDSAVYYCARFEELWGGYWYFDVWGTGTTVTVSS", "VL": "B3 VL with L21I, T33N, T94S"}, "B10": {"name": "Kp1 2H04 Fab (Fab, V domains shown)", "VH": "EVQLQQSGAELVKPGASVKLSCKASGYTFTSYWMHWVKQRPGQGLEWIGLIHPNSSSTYYNEKFKTRATLTVDKSSSTAYMQLSSLTSEDSAVYYCARLGYGNSYWYFDVWGTGTTVTVSS", "VL": "B3 VL with L21I, T33N, V61I, M79L, S93R, T94S, Y97W"}, "B11": {"name": "Ec H9 (antibody, V domains shown)", "VH": "B5 VH with P7S, I34V, T97A", "VL": "B3 VL with L21I, S64G"}, "B12": {"name": "Kp1 2H04 (antibody, V domains shown)", "VH": "B10 VH", "VL": "B3 VL with L21I, T33N, V61I, M79L, S93R, T94S, Y97W"}, "B13": {"name": "Kp2 2C07 (Fab, V domains shown)", "VH": "EVKLVESGEGLVKPGGSLKLSCAASGFTFSSYAMSWVRQTPEKRLDWVAYISSGGDHIYYADTVKGRFTISRDNARNTLYLQMSSLKSEDTAMYYCTRDTGYYVSRYFDVWGTGTTVTVSS", "VL": "DIVMTQSQKFMSTSVGDRVSVTCKASQNVVTNVAWYQQKSGQSPKVVIYSASFRSSGVPDRFTGSGSGTDFTLTISNVQSEDLAEYFCHQYNSHPLTFGGGTKLEIKR"}, "B14": {"name": "Kp2 2C07 Fab (Fab, V domains shown)", "VH": "B13 VH", "VL": "B13 VL"}, "B15": {"name": "FimLD (other)", "chain": "FACKTANGTAIPIGGGSANVYVNLAPAVNVGQNLVVDLSTQIFCHNDYPETITDYVTLQRGAAYGGVLSSFSGTVKYNGSSYPFPTTSETPRVVYNSRTDKPWPVALYLTPVSSAGGVAIKAGSLIAVLILRQTNNYNSDDFQFVWNIYANNDVVVPTGG"}}, "key": {"Ec FmlHLD": {"target": "T1, Ec FmlHLD", "T1 chain": "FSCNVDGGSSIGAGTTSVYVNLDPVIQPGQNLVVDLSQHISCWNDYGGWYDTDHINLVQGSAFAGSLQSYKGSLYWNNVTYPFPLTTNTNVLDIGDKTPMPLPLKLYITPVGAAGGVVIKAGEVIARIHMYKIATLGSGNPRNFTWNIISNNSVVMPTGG", "test": "ELISA"}, "Ec FimHLD": {"target": "Ec FimHLD", "test": "ELISA"}, "Kp FimHLD": {"target": "T2, Kp FimHLD", "T2 chain": "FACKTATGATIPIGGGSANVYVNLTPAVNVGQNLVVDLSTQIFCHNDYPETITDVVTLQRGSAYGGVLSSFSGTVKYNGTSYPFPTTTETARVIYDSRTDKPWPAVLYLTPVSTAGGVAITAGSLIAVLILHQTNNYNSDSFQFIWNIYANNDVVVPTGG", "test": "ELISA"}, "FimGNTEH [1]": {"target": "T3, FimGNTEH (E. coli, UniProt P08190 24-37)", "T3 sequence (P08190 whole entry, looked up)": "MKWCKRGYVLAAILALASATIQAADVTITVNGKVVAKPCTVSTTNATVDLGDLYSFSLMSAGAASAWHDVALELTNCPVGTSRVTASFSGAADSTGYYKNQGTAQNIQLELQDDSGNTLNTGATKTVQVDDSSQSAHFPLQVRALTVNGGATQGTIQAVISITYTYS", "test": "BLI"}, "FimGnteH [2]": {"target": "T4, FimGnteH (E. coli, UniProt P08190 24-37)", "T4 sequence (P08190 whole entry, looked up)": "T3 sequence (P08190 whole entry, looked up)", "test": "BLI"}, "[3]": {"target": "T5, E. coli FimH lectin domain truncate (UT189) (E. coli (UT189))", "T5 chain": "B15 chain", "test": "BLI"}, "[4]": {"target": "T5, E. coli FimH lectin domain truncate …", "test": "BLI"}, "[5]": {"target": "T5, E. coli FimH lectin domain truncate …", "test": "BLI"}, "[6]": {"target": "T5, E. coli FimH lectin domain truncate …", "test": "BLI"}, "[7]": {"target": "T5, E. coli FimH lectin domain truncate …", "test": "BLI"}, "Ec1 H9": {"target": "Ec1 H9", "test": "BLI"}, "Kp1 1A02": {"target": "Kp1 1A02", "test": "BLI"}, "Kp1 1C01": {"target": "Kp1 1C01", "test": "BLI"}, "Kp1 2G02": {"target": "Kp1 2G02", "test": "BLI"}, "Kp1 2E02": {"target": "Kp1 2E02", "test": "BLI"}, "Kp1 2H07": {"target": "Kp1 2H07", "test": "BLI"}, "Kp1 1B03": {"target": "Kp1 1B03", "test": "BLI"}, "Kp1 2E08": {"target": "Kp1 2E08", "test": "BLI"}, "Kp1 2D07": {"target": "Kp1 2D07", "test": "BLI"}, "Ec1 C12": {"target": "Ec1 C12", "test": "BLI"}}, "note": "Residue numbers refer to the chain shown, from its start. Where two headings read alike, the source gives them in different places."}
{"binder": "B1", "values": [{"measurement": "EC50", "setting": "Ec FmlHLD", "value": 0.018, "unit": "µg/mL"}, {"measurement": "EC50", "setting": "Ec FimHLD", "value": 0.0135, "unit": "µg/mL"}, {"measurement": "EC50", "setting": "Kp FimHLD", "value": 0.0161, "unit": "µg/mL"}]}
{"binder": "B2", "values": [{"measurement": "EC50", "setting": "Ec FmlHLD", "value": 0.0117, "unit": "µg/mL"}, {"measurement": "EC50", "setting": "Ec FimHLD", "value": 0.0094, "unit": "µg/mL"}, {"measurement": "EC50", "setting": "Kp FimHLD", "value": 0.0115, "unit": "µg/mL"}]}
{"binder": "B3", "values": [{"measurement": "EC50", "setting": "Ec FmlHLD", "value": 0.0097, "unit": "µg/mL"}, {"measurement": "EC50", "setting": "Ec FimHLD", "value": 0.0127, "unit": "µg/mL"}, {"measurement": "EC50", "setting": "Kp FimHLD", "value": 0.0127, "unit": "µg/mL"}]}
{"binder": "B4", "values": [{"measurement": "EC50", "setting": "Ec FmlHLD", "value": 2.72, "unit": "µg/mL"}, {"measurement": "EC50", "setting": "Ec FimHLD", "value": 0.0104, "unit": "µg/mL"}, {"measurement": "EC50", "setting": "Kp FimHLD", "value": 0.0137, "unit": "µg/mL"}]}
{"binder": "B5", "values": [{"measurement": "Kd", "setting": "FimGNTEH [1]", "value": 0.7, "unit": "nM"}, {"measurement": "Kd", "setting": "FimGnteH [2]", "value": 0.7, "unit": "nM"}]}
{"binder": "B6", "values": [{"measurement": "EC50", "setting": "Ec FmlHLD", "value": 3.06, "unit": "µg/mL"}, {"measurement": "EC50", "setting": "Ec FimHLD", "value": 0.0092, "unit": "µg/mL"}, {"measurement": "EC50", "setting": "Kp FimHLD", "value": 0.0125, "unit": "µg/mL"}]}
{"binder": "B7", "values": [{"measurement": "koff", "setting": "[3]", "value": "2.2e-05", "unit": "s⁻¹"}, {"measurement": "koff", "setting": "[4]", "value": "2.2e-05", "unit": "s⁻¹"}]}
{"binder": "B8", "values": [{"measurement": "EC50", "setting": "Ec FmlHLD", "value": 2.1, "unit": "µg/mL"}, {"measurement": "EC50", "setting": "Ec FimHLD", "value": 0.0144, "unit": "µg/mL"}, {"measurement": "EC50", "setting": "Kp FimHLD", "value": 0.0185, "unit": "µg/mL"}]}
{"binder": "B9", "values": [{"measurement": "EC50", "setting": "Ec FmlHLD", "value": 10.1, "unit": "µg/mL"}, {"measurement": "EC50", "setting": "Ec FimHLD", "value": 0.0119, "unit": "µg/mL"}, {"measurement": "EC50", "setting": "Kp FimHLD", "value": 0.0109, "unit": "µg/mL"}]}
{"binder": "B10", "values": [{"measurement": "koff", "setting": "[3]", "value": "2.1e-05", "unit": "s⁻¹"}, {"measurement": "koff", "setting": "[5]", "value": "2.1e-05", "unit": "s⁻¹"}]}
{"binder": "B11", "values": [{"measurement": "EC50", "setting": "Ec FmlHLD", "value": 0.015, "unit": "µg/mL"}, {"measurement": "EC50", "setting": "Ec FimHLD", "value": 0.0301, "unit": "µg/mL"}, {"measurement": "EC50", "setting": "Kp FimHLD", "value": 0.0243, "unit": "µg/mL"}]}
{"binder": "B12", "values": [{"measurement": "EC50", "setting": "Ec FmlHLD", "value": 0.0154, "unit": "µg/mL"}, {"measurement": "EC50", "setting": "Ec FimHLD", "value": 0.0178, "unit": "µg/mL"}, {"measurement": "EC50", "setting": "Kp FimHLD", "value": 0.0096, "unit": "µg/mL"}]}
{"binder": "B13", "values": [{"measurement": "Kd", "setting": "FimGNTEH [1]", "value": 9.9, "unit": "nM"}, {"measurement": "Kd", "setting": "FimGnteH [2]", "value": 9.9, "unit": "nM"}]}
{"binder": "B14", "values": [{"measurement": "Kd", "setting": "[6]", "value": 2.8, "unit": "nM"}, {"measurement": "Kd", "setting": "[7]", "value": 2.8, "unit": "nM"}]}
{"binder": "B15", "values": [{"measurement": "Kd", "setting": "Ec1 H9", "value": 0.2, "unit": "nM"}, {"measurement": "Kd", "setting": "Kp1 1A02", "value": 0.7, "unit": "nM"}, {"measurement": "Kd", "setting": "Kp1 1C01", "value": 3.4, "unit": "nM"}, {"measurement": "koff", "setting": "Kp1 2G02", "value": "1.3e-05", "unit": "s⁻¹"}, {"measurement": "Kd", "setting": "Kp1 2E02", "value": 0.4, "unit": "nM"}, {"measurement": "Kd", "setting": "Kp1 2H07", "value": 1, "unit": "nM"}, {"measurement": "Kd", "setting": "Kp1 1B03", "value": 4.9, "unit": "nM"}, {"measurement": "Kd", "setting": "Kp1 2E08", "value": 1, "unit": "nM"}, {"measurement": "Kd", "setting": "Kp1 2D07", "value": 1.5, "unit": "nM"}, {"measurement": "Kd", "setting": "Ec1 C12", "value": 2.7, "unit": "nM"}]}
